From patent publication US20230417748A1
“And” between values parts separate entries of the source, which are not always exact repeats. Equal entries are not always repeated.

Biological target: SARS-CoV-2 (2019-nCoV) Spike Protein (S1+S2 ECD, His tag) (Sino Biological, 40589-V08B1) (SARS-CoV-2), P0DTC2
Conditions: remark: other sources report otherwise

B1: clone 5E9 (antibody, V domains shown)
VH: EVQLVESGGGLVQPGGSLRLSCAASGFTFTTYDMGWVRQAPGKGPEWVSLISSGGSNTWYDDSVKGRFTISRDNSKNTLYLQMNSLRAEDTAVYYCAKEKYPYSDCDYWGQGTLVTVSS
B1 was tested, and the O.D. was 0.892 O.D. and 0.904 O.D.

B2: clone 6D9 (antibody, V domains shown)
VH: EVQLVESGGGLVQPGGSLRLSCAASGFTFTDYDMGWVRQAPGKGPEWVSLISGDSGNTWYDDSVKGRFTISRDNSKNTLYLQMNSLRAEDTAVYYCAKYRGTTKDYWGQGTLVTVSS
With B2 the O.D. was 0.997 O.D. and 0.991 O.D.
